# Reference: IntAct's records for PubMed 27725184
# B1: STAM-binding protein (Homo sapiens), O95630 (parent)
# chain: MSDHGDVSLPPEDRVRALSQLGSAVEVNEDIPPRRYFRSGVEIIRMASIYSEEGNIEHAFILYNKYITLFIEKLPKHRDYKSAVIPEKKDTVKKLKEIAFPKAEELKAELLKRYTKEYTEYNEEKKKEAEELARNMAIQQELEKEKQRVAQQKQQQLEQEQFHAFEEMIRNQELEKERLKIVQEFGKVDPGLGGPLVPDLEKPSLDVFPTLTVSSIQPSDCHTTVRPAKPPVVDRSLKPGALSNSESIPTIDGLRHVVVPGRLCPQFLQLASANTARGVETCGILCGKLMRNEFTITHVLIPKQSAGSDYCNTENEEELFLIQDQQGLITLGWIHTHPTQTAFLSSVDLHTHCSYQMMLPESVAIVCSPKFQETGFFKLTDHGLEEISSCRQKGFHPHSKDPPLFCSCSHVTVVDRAVTITDLR
# Variants of: B1
# Conditions: with stam2_human STAM2, O75886
row,Variant,effect of a mutation on the interaction
1,K229H,with no effect
2,K238T,decreasing interaction
